From US20160280794A1 (published 2016)

Molecular target: T1, CD20 (human, UniProt P11836 1-297)
T1 chain: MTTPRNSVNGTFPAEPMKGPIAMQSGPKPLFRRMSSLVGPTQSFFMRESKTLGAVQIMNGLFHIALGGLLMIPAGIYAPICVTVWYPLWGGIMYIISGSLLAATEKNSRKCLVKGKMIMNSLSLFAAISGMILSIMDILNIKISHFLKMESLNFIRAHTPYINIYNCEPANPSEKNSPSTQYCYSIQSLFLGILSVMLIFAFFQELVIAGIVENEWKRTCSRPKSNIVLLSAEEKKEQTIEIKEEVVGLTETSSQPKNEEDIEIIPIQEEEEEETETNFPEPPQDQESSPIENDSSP
Experiment: FACS binding; Ramos cells

B1: Rituximab (antibody)
chain 1: not shown
chain 2: QIVLSQSPAILSASPGEKVTMTCRASSSVSYIHWFQQKPGSSPKPWIYATSNLASGVPVRFSGSGSGTSYSLTISRVEAEDAATYYCQQWTSNPPTFGGGTKLEIKRTVAAPSVFIFPPSDEQLKSGTASVVCLLNNFYPREAKVQWKVDNALQSGNSQESVTEQDSKDSTYSLSSTLTLSKADYEKHKVYACEVTHQGLSSPVTKSFNRGEC
How did the EC50 turn out when B1 was run?
Its EC50 is 1.13 mg/L.
